Assay results: paper PMC4594993

Target: extracellular domain of basigin (CD147-ED)
Test: SPR; ProteOn XPR36, CD147-ED immobilised on an activated GLC chip; CD98-ED injected at 0, 3, 1.5, 0.75, 0.375, 0.1875 uM, association 180 s, dissociation 600 s; 1:1 binding model

Kd: 187 nM
Substance: extracellular domain of CD98 (CD98-ED, residues 111-530 of human 4F2hc) (domain or fragment)
